Assay results published in patent publication US20200055939A1 (Genentech, published 2020).
Residue numbers refer to the chain shown, from its start. Where two headings read alike, the source gives them in different places. One block for each binder: values may come before it.

Experiments:
[1] = biological target: T1, MICA*004 on HCC1534 cells (human, UniProt Q29983 24-383); experiment: cell-based or functional assay
[2] = biological target: T2, MICA*008 on MEL-JUSO cells (human, UniProt Q29983 24-317); experiment: cell-based or functional assay
T2 chain: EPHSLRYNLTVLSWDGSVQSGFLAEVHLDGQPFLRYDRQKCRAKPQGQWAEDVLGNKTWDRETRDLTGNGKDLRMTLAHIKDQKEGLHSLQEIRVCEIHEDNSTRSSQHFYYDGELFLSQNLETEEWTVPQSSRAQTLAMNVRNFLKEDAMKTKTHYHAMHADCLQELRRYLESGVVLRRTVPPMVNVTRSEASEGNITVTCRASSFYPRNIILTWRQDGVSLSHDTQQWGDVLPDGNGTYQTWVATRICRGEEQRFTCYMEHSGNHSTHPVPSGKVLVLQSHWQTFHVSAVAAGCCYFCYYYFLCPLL

[3] = biological target: T3, MICB*005 on HCC1534 cells (human, UniProt Q29980 23-383); experiment: cell-based or functional assay
T3 sequence (looked up): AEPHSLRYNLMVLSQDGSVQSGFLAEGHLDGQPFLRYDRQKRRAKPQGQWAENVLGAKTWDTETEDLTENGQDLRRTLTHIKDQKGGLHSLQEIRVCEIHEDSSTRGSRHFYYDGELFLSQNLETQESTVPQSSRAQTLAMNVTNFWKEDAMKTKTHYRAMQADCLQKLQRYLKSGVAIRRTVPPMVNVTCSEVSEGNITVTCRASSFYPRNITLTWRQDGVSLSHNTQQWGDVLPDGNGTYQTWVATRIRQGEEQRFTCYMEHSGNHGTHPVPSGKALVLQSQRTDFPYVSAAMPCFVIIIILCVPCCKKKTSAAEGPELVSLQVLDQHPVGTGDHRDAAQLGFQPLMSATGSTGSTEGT

[4] = biological target: T1, MICA*004 on HCC1534 cells; experiment: cell-based or functional assay; remark: listed apart in the source
[5] = biological target: T2, MICA*008 on MEL-JUSO cells; experiment: cell-based or functional assay
[6] = biological target: T3, MICB*005 on HCC1534 cells; experiment: cell-based or functional assay; remark: listed apart in the source
[7] = biological target: T1, MICA*004 on HCC1534 cells; experiment: cell-based or functional assay; remark: listed apart in the source
[8] = biological target: T2, MICA*008 on MEL-JUSO cells; experiment: cell-based or functional assay
[9] = biological target: T3, MICB*005 on HCC1534 cells; experiment: cell-based or functional assay; remark: listed apart in the source
[10] = biological target: MICA*002 on cells (PANC-1; B16-MICA002) (human, UniProt Q29983 24-383); experiment: cell-based or functional assay
[11] = biological target: T4, MICB005.His (human MICB*005 alpha 3 domain, His tagged) (human); experiment: SPR, antibody captured;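 also: SPR with antibody held by surface-bound anti-Fc while His-tagged alpha three domains flow over, Kd derived by fitting a one-to-one binding model to sensograms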
T4 construct: also called huMICB*005 alpha 3-his
T4 chain: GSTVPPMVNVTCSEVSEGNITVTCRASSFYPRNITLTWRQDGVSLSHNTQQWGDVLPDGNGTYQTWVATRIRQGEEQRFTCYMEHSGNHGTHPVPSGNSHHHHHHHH

[12] = biological target: T5, MICA008.His (human MICA*008 alpha 3 domain, His tagged) (human); experiment: SPR, antibody captured;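 also: SPR with antibody held by surface-bound anti-Fc while His-tagged alpha three domains flow over, Kd derived by fitting a one-to-one binding model to sensograms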
T5 construct: Also used for FPOP (expressed in CHO); also called huMICA*008 alpha 3-his; MICA*008 a3
T5 chain: T4 chain with C12R, V15A, T35I, N48D, R72C, Q73R, G90S

[13] = biological target: T6, MICA004.His (human MICA*004 alpha 3 domain, His tagged) (human); experiment: SPR, antibody captured;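 also: SPR with antibody held by surface-bound anti-Fc while His-tagged alpha three domains flow over, Kd derived by fitting a one-to-one binding model to sensograms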
T6 construct: also called huMICA*004 alpha 3-his
T6 chain: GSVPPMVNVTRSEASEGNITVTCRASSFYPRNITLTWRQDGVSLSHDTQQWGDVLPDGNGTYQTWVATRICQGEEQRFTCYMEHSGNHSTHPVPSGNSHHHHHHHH

[14] = biological target: T7, MICA002.His (human MICA*002 alpha 3 domain, His tagged) (human); experiment: SPR, antibody captured;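 also: SPR with antibody held by surface-bound anti-Fc while His-tagged alpha three domains flow over, Kd derived by fitting a one-to-one binding model to sensograms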
T7 construct: also called huMICA*002 alpha 3-his
T7 chain: T4 chain with C12R, V15A, S28G, R32W, T37S, N48D, R72C, G90S

[15] = biological target: T8, MILL1-MICA chimera.murine IgG2a Fc fusion (mouse MILL1 with grafted human MICA*008 …); experiment: ELISA, coated chimera
T8 construct: MICA*008 residues around NGTYQT on the 'back' and in the beta2 microglobulin interface grafted onto murine MILL1; also called MILL1-MICA*008 chimera

[16] = biological target: T9, MICA.008.a3.T204-S297.H248N.mIgG2a.Glyco15 (human; mouse, UniProt Q29983 204-297, engineered N-linked glycosylation site H248N); experiment: ELISA, coated variant;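 also: ELISA with plates coated at 2 ug/ml with MICA*008 alpha 3 glycosylation variants as murine IgG2a Fc fusions, antibody binding detected by HRP anti-human IgG Fc and TMB absorbance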
T9 construct: not shown: murine IgG2a Fc
T9 chain: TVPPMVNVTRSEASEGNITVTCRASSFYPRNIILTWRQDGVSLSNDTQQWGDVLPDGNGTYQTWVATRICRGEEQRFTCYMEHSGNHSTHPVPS

[17] = biological target: T10, MICA.008.a3.R202-S297.R202N mIgG2a.Glyco11 (human; mouse, UniProt Q29983 203-297, engineered N-linked glycosylation site R202N); experiment: ELISA, coated variant;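 also: ELISA with plates coated at 2 ug/ml with MICA*008 alpha 3 glycosylation variants as murine IgG2a Fc fusions, antibody binding detected by HRP anti-human IgG Fc and TMB absorbance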
T10 construct: not shown: murine IgG2a Fc
T10 chain: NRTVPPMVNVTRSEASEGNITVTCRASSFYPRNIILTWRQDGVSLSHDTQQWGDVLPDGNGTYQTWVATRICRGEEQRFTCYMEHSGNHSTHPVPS

[18] = biological target: T11, MICA.008.a3.T204-S297.E215N.mIgG2a.Glyco12 (human; mouse, UniProt Q29983 204-297, engineered N-linked glycosylation site E215N); experiment: ELISA, coated variant;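 also: ELISA with plates coated at 2 ug/ml with MICA*008 alpha 3 glycosylation variants as murine IgG2a Fc fusions, antibody binding detected by HRP anti-human IgG Fc and TMB absorbance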
T11 construct: not shown: murine IgG2a Fc
T11 chain: T9 chain with E12N, N45H

[19] = biological target: T12, MICA.008.a3.T204-S297.I236T.mIgG2a.Glyco13 (human; mouse, UniProt Q29983 204-297, engineered N-linked glycosylation site created by I236T); experiment: ELISA, coated variant;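 also: ELISA with plates coated at 2 ug/ml with MICA*008 alpha 3 glycosylation variants as murine IgG2a Fc fusions, antibody binding detected by HRP anti-human IgG Fc and TMB absorbance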
T12 construct: not shown: murine IgG2a Fc
T12 chain: T9 chain with I33T, N45H

[20] = biological target: T13, MICA.008.a3.T204-S297.C-terminal insert of N298.G299.S300.mIgG2a.Glyco17 (human; mouse, UniProt Q29983 204-297, engineered N-linked glycosylation site at inserted N298); experiment: ELISA, coated variant
T13 construct: not shown: murine IgG2a Fc
T13 chain: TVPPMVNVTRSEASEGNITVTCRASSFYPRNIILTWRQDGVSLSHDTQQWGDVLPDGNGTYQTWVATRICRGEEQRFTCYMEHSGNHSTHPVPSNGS

[21] = biological target: T14, human MICA*008 alpha 3 domain, untagged (crystallography) (human, UniProt Q29983 204-297); experiment: complex purified by size exclusion, X-ray structure
T14 construct: Made in T. ni cells with EndoH and kifunensine; N-terminal His6 tag removed with thrombin; also called MICA*008 α3 domain
T14 chain: T9 chain with N45H

[22] = biological target: T4, MICB005.His (human MICB*005 alpha 3 …); experiment: ELISA, coated antigen
[23] = biological target: T15, MICA.008.a3.T204-S297.R279N.mIgG2a.Glyco16 (human; mouse, UniProt Q29983 204-297, engineered N-linked glycosylation site R279N); experiment: ELISA, coated variant
T15 construct: not shown: murine IgG2a Fc
T15 chain: T9 chain with N45H, R76N

[24] = biological target: T16, MICA.008.a3.T204-S297.G243N.mIgG2a.Glyco14 (human; mouse, UniProt Q29983 204-297, engineered N-linked glycosylation site G243N); experiment: ELISA, coated variant
T16 construct: not shown: murine IgG2a Fc
T16 chain: T9 chain with G40N, N45H

[25] = biological target: T17, human MICA*008 C273S alpha 3 domain, untagged (crystallography) (human, UniProt Q29983 204-297); experiment: complex purified by size exclusion, X-ray structure
T17 construct: C273S removes the unpaired cysteine; made as the wild-type alpha 3 domain; also called MICA*008 C273S α3 domain
T17 chain: T9 chain with N45H, C70S

% max inhibition of shedding [1]: 66% | EC50 of shedding inhibition [1]: 0.166 µg/mL | % max inhibition of shedding [2]: 47% | EC50 of shedding inhibition [2]: 0.489 µg/mL | % max inhibition of shedding [3]: 79% | EC50 of shedding inhibition [3]: 0.053 µg/mL | maximum inhibition of shedding [4]: ~60% | maximum inhibition of shedding [5]: ~40% | maximum inhibition of shedding [6]: 75% | EC50 of shedding inhibition [7]: 0.599 µg/mL | Max % Inhibition of shedding [7]: 56% | EC50 of shedding inhibition [8]: 0.794 µg/mL | Max % Inhibition of shedding [8]: 50% | EC50 of shedding inhibition [9]: 0.0349 µg/mL | Max % Inhibition of shedding [9]: 76% | EC50 of shedding inhibition [10]: 0.418 µg/mL | Max % Inhibition of shedding [10]: 66% | Kd [11]: 0.97 nM | Kd [12]: 0.94 nM | Kd [13]: 1.55 nM | Kd [14]: 0.5 nM | binding result [15]: binds | binding result [16]: binds | binding result [17]: binds | binding result [18]: binds | binding result [19]: binds | binding result [20]: binds
B1: 13A9 (antibody, V domains shown)
VH: QVQLQQSGAELVRPGTSVKVSCKASGYAFTNYLIEWVKQRPGQGLEWIGAINPGSGATNYNEKFKDKARLTADKSSNTAYLQFSSLTSDDSAVYFCARFLGNYFDNWGQGATLTVSS
VL: DIQMTQSPASLSASVGETVTITCRASGNIHSYLAWYQQKQGKSPQLLVYYAETLADGVPSRFSGRGSGTQYSLKINSLQPEDFGSYFCQQFWTTPYTFGGGTKVEIK
notes: Mouse variable domains; constant regions differ by assay

binding result [21]: binds
B2: 13A9 Fab (Fab, V domains shown)
VH: B1 VH
VL: B1 VL
notes: Expressed in E. coli as chimera of murine variable and human constant domains; not shown: human IgG1 CH1 constant domain; human kappa CL constant domain

% max inhibition of shedding [1]: 37% | EC50 of shedding inhibition [1]: 0.329 µg/mL | % max inhibition of shedding [2]: 28% | EC50 of shedding inhibition [2]: 0.074 µg/mL | binding result [22]: binds | Kd [12]: 15.1 nM | Kd [13]: 3 nM | Kd [14]: 4.5 nM | binding result [17]: binds | binding result [18]: binds | binding result [19]: binds | binding result [20]: binds | binding result [23]: binds | binding result [24]: binds
B3: 6E12.5 (antibody, V domains shown)
VH: EVQLVESGGGLVKPGGSLKLSCAASGFTFSDYYMYWVRQTPEKRLEWVATISDGITYTYYSDSVRGRFTISRDNAENTLYLQMSSLKSEDTAMYYCSKGGGSTARGALDFWGQGTSVTVSS
VL: DIQMNQSPSSLSASLGDTITITCHASQNIHVWLSWYQQKPGNIPKLLIYGASHLHTGVPSRFSGRGSGTGFTLTISSLQPEDIATYYCLQGQSYPLTFGSGTKVEIK
notes: Mouse hybridoma antibody; constant regions differ by assay

binding result [25]: binds
B4: 6E1.1.12 Fab (Fab, V domains shown)
VH: QGQMQQSGAELVKPGASVKLSCKTSGFTFSDNYISWLKQKPGQSLEWIAWIYAGTGGSSYNQKFRDKAQLTVDTSSRTAYMQLSSLTTEDSAIYYCARHDYYGTSGAWFAYWGRGTLVTVSA
VL: DVLMTQTPLSLPVSLGDQASISCRSSQHIVHSNENTYLEWYLQKPGQSPKLLIYKVSNRFSGVPDRFSGSGSGTDFTLKISRVEAEDLGVYYCFQGSHVPWTFGGGTKVEIK
notes: Expressed in E. coli; the fraction with glutamine (not pyroglutamate) at the heavy chain N-terminus was crystallised; also called 6E1 Fab; not shown: human IgG1 CH1 constant domain; human kappa CL constant domain
